Laboratory results reported in US20020146805.

System: PFEK-protease T-6xHIS zymogen
Sequence (chain, as listed by the source): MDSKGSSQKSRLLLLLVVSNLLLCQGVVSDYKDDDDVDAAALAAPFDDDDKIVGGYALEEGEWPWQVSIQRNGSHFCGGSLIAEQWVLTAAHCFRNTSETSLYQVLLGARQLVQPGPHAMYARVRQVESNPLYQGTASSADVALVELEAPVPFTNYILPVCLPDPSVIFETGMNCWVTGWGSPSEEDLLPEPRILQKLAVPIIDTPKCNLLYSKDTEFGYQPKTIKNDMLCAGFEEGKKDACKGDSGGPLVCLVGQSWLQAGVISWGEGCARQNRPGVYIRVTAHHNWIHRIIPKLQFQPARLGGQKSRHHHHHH

enterokinase was tested. Which “cleavage of the zymogen (SDS-PAGE and anti-FLAG Western blot)” value did it give?
The value was “quantitative cleavage of the expressed and purified zymogen to generate the processed and activated protease”.
